The source of these data is patent US20060034860A1 (CELLVIR, published 2006).

Assay [1] concerns the target T1, Casein Kinase 2, beta polypeptide (CSNK2B), prey47239, prey fragments (Human, UniProt P67870 2-215).
T1 construct: also called hCSNK2B; regulatory beta chain of CK2
Nature of the assay: yeast two-hybrid screen, bait PR_v1 (pB27), Human CEMC7 Random Primed prey library; table of bait-prey interactions.

The target in assay [2] is T2, Human UBE1 (prey030679), prey fragments (Human, UniProt P22314 2-1058).
T2 sequence: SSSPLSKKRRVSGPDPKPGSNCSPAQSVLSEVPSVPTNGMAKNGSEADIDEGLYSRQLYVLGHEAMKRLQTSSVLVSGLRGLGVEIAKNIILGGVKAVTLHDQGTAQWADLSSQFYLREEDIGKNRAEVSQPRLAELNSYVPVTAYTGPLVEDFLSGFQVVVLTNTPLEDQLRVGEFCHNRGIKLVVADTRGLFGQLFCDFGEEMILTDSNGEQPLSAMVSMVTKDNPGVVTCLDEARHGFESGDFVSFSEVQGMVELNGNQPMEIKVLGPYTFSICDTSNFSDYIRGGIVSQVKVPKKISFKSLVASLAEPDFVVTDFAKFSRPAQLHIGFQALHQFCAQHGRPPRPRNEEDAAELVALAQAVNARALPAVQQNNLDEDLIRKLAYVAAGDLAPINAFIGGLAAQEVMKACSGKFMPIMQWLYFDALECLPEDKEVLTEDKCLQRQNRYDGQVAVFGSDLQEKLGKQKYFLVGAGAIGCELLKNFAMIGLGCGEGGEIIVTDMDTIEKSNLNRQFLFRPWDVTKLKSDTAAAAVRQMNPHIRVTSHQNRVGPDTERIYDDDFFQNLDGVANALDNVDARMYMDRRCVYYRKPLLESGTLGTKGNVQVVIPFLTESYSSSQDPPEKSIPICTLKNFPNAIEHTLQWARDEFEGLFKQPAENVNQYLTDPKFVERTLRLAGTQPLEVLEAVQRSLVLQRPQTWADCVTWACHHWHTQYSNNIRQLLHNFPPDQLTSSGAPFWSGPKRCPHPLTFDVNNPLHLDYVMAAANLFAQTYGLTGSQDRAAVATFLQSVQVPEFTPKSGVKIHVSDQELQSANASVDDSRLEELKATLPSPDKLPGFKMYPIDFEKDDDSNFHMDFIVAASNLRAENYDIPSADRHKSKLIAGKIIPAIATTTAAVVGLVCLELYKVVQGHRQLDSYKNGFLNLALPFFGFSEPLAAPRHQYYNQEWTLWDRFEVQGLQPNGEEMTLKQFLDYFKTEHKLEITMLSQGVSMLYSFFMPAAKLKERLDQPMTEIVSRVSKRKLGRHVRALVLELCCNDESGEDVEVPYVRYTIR
Nature of the assay: yeast two-hybrid screen, bait PR_v1 (pB27), CEMC7 oligo dT primed cDNA prey library; table of bait-prey interactions.

In assay [3] the target is T3, Human AKAP1 (prey026778), A kinase anchor protein 1 (Human, UniProt Q92667 30-903).
T3 construct: Prey fragments (vector pP6) in the primary screen
T3 sequence: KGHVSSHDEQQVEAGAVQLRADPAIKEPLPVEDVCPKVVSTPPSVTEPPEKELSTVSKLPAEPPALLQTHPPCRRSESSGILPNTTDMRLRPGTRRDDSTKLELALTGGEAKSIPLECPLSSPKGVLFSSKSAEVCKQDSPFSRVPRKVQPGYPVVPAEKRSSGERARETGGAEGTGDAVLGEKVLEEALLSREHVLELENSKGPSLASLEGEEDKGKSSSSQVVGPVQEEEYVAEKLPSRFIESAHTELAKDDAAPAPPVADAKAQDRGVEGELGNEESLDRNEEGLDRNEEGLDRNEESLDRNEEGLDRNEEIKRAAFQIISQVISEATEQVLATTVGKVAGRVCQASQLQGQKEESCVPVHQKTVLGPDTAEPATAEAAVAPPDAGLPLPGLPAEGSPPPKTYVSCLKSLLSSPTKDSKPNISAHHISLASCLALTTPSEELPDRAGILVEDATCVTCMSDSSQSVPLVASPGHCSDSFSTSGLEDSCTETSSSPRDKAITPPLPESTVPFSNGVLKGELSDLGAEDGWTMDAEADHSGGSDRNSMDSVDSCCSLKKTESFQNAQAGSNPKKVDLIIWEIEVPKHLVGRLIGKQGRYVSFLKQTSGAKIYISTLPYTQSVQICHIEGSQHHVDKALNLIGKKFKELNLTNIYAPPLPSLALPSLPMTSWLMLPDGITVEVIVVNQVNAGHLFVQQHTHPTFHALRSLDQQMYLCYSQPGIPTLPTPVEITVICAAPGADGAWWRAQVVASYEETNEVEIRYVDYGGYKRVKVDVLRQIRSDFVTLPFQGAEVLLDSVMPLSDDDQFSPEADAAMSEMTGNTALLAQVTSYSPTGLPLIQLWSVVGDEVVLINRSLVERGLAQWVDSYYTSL
Nature of the assay: yeast two-hybrid screen, bait RT_v1, CEMC7 random primed cDNA prey library; table of bait-prey interactions.

For assay [4], the target named is T4, BRCA1 assoc. Prot.1 (BAP1), prey17662 / prey145885, prey fragments (Human, UniProt Q92560 1-729).
T4 construct: also called hBAP1; Ubiquitin Hydrolase
T4 sequence: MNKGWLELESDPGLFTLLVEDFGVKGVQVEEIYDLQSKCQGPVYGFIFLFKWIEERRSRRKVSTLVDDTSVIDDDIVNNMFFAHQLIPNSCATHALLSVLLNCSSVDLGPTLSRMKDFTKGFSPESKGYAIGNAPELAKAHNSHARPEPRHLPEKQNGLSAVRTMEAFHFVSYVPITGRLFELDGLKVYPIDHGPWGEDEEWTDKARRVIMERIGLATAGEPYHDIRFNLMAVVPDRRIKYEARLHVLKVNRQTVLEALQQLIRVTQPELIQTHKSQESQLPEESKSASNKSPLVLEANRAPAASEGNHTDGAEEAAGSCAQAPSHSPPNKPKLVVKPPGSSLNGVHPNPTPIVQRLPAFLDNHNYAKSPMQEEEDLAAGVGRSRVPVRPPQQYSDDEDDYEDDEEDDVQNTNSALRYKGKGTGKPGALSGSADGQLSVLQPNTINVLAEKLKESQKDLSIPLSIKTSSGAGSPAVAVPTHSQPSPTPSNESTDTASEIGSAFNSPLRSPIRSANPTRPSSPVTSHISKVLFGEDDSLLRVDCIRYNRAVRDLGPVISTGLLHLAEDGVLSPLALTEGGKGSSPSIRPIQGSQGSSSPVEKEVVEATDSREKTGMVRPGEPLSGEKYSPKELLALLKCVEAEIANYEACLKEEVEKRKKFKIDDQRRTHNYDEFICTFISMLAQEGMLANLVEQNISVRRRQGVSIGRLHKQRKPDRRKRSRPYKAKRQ
Nature of the assay: yeast two-hybrid screen, bait NC_v1 (pB6), Human CEMC7 Random Primed prey library; table of bait-prey interactions.

T1 sequence (P67870 2-215 limits assumed): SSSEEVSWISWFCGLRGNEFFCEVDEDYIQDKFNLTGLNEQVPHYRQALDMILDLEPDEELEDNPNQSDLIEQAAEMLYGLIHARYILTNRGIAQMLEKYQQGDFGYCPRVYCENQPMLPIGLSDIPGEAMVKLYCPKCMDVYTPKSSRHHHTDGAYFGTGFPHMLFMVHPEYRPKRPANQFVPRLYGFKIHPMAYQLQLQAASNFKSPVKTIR

B1: HIV-1 protease, bait PR_v1 (enzyme)
chain: not shown
Consider B1, for which the binding result in assay [1] and in assay [2] was “binds” throughout.

B2: HIV-1 reverse transcriptase p66 subunit, bait RT_v1 (enzyme)
chain: not shown
notes: also called p66 RT; HIV-1 p66 RT
For B2, the binding result in assay [3] is given as “binds”.

B3: HIV-1 Nucleocapsid NCp7, bait NC_v1 (other)
chain: MQRGNFRNQRKTVKCFNCGKEGHIAKNCRAPRKKGCWKCGKEGHQMKDCTERQAN
B3: the binding result in assay [4] is “binds”.
